Data as given in patent US20190233517A1 (published 2019).

T1: CD20 on the cell surface of Raji cells (human, UniProt P11836 1-297)
T1 construct: whole, on cells; also called CD20 (Raji)
T1 sequence (looked up): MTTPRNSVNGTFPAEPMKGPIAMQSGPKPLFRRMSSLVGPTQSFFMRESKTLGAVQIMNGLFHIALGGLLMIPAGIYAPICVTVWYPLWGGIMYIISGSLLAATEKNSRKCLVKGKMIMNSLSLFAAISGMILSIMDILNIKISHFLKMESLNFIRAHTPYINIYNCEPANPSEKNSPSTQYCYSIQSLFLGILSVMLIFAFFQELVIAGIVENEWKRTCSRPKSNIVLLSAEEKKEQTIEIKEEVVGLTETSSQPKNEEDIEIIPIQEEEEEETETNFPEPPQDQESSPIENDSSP

T2: cynomolgus CD20 on transiently transfected HEK 293 cells (cynomolgus, UniProt M4ZHZ6 1-297)
T2 construct: whole, on cells; also called cynoCD20
T2 sequence: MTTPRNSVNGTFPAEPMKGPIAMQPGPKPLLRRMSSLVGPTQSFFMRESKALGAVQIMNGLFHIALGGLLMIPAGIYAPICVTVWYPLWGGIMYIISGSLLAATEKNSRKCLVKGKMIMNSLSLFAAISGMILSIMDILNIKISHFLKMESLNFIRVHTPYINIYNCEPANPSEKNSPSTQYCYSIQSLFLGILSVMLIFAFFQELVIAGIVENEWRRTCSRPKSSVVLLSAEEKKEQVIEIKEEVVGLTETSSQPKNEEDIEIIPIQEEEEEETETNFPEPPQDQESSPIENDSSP

B1: FIT013a cMet (h1332 (13.3.2L-A91T,H-42K,S97T))/EGFR (panitumumab) (bispecific antibody, human IgG1, kappa)
chain 1: not shown
chain 2: QVQLVQSGAEVKKPGASVKVSCKASGYTFTSYGFSWVRQAPGQGLEWMGWISASNGNTYYAQKLQGRVTMTTDTSTSTAYMELRSLRSDDTAVYYCARVYADYADYWGQGTLVTVSSASTKGPSVFPLAPSSKSTSGGTAALGCLVKDYFPEPVTVSWNSGALTSGVHTFPAVLQSSGLYSLSSVVTVPSSSLGTQTYICNVNHKPSNTKVDKKVEPKSC
chain 3: not shown
B2: FIT018a CD20 (Ofatumumab)/CD3 mAb (bispecific antibody, human IgG1, kappa, lambda, L234A L235A)
chain 1: not shown
chain 2: EVQLVESGGGLVQPGRSLRLSCAASGFTFNDYAMHWVRQAPGKGLEWVSTISWNSGSIGYADSVKGRFTISRDNAKKSLYLQMNSLRAEDTALYYCAKDIQYGNYYYGMDVWGQGTTVTVSSASTKGPSVFPLAPSSKSTSGGTAALGCLVKDYFPEPVTVSWNSGALTSGVHTFPAVLQSSGLYSLSSVVTVPSSSLGTQTYICNVNHKPSNTKVDKKVEPKSC
chain 3: ELVVTQEPSLTVSPGGTVTLTCRSSTGAVTTSNYANWVQQKPGQAPRGLIGGTNKRAPGTPARFSGSLLGGKAALTLSGVQPEDEAEYYCALWYSNLWVFGGGTKLTVLGQPKAAPSVTLFPPSSEELQANKATLVCLISDFYPGAVTVAWKADSSPVKAGVETTTPSKQSNNKYAASSYLSLTPEQWKSHRSYSCQVTHEGSTVEKTVAPTECS
B3: OKT3/Ofatumumab FIT7-Ig (bispecific antibody, human IgG1, kappa)
chain 1: not shown
chain 2: not shown
chain 3: not shown
notes: FIT-Ig of 3 polypeptides, two copies of each chain, human IgG1 Fc
B4: cMet antibody h1332 (13.3.2L-A91T,H-42K,S97T) (antibody, V domains shown)
VH: QVQLVQSGAEVKKPGASVKVSCKASGYTFTSYGFSWVRQAPGQGLEWMGWISASNGNTYYAQKLQGRVTMTTDTSTSTAYMELRSLRSDDTAVYYCARVYADYADYWGQGTLVTVSS
VL: DIQMTQSPSSVSASVGDRVTITCRASQGINTWLAWYQQKPGKAPKLLIYAASSLKSGVPSRFSGSGSGTDFTLTISSLQPEDFATYYCQQANSFPLTFGGGTKVEIK
B5: OKT3/Ofatumumab FIT8-Ig (bispecific antibody, human IgG1, kappa)
chain 1: not shown
chain 2: not shown
chain 3: not shown
notes: as for B3

Legend:
membrane EGFR = membrane EGFR (human, UniProt P00533 25-1210); experiment: cell-based or functional assay
[1] = target: T1, CD20 on the cell surface of Raji cells; experiment: flow cytometry on Raji cells
Source text: (§1) Raji cell was used for detecting human B cell binding. […] Cells were washed in PBS buffer containing 2% FBS. […] Cells were washed and signal was detected with a BD FACSVerse flow cytometer according to manufacture's protocols.

[2] = target: T2, cynomolgus CD20 on transiently …; experiment: flow cytometry on HEK 293 cells transfected with cynoCD20
Source text: as §1

[3] = target: T1, CD20 on the cell surface of Raji cells; experiment: flow cytometry on Raji cells, 100 nM

Row | Binder | EGFR Depletion (%), H441 cell, FACS after >16 hrs at 37 C (membrane EGFR) | Binding Intensity by FACS (MFI) [3] | other results
1 | B1 | 65.9% |  | 
2 | B2 |  |  | binding result [1]: binds; binding result [2]: binds
3 | B3 |  | 291 MFI | 
4 | B4 | 0% |  | 
5 | B5 |  | 274 MFI | 
